Assay results from article PMC6033355.

How the values were obtained:
[1] = target: HD_(N-TIMP2,V3) bi-specific heterodimer (N-TIMP2 fused by a linker to V3, the engineered soluble extracellular domain of the IL-17A receptor, with human IgG1 Fc and 6xHis); assay: BLI; Octet Red; HD_(N-TIMP2,V3) or V3 loaded on Protein A sensors (10 ug/ml, 300 s); IL-17A or MMP-9CAT in solution at 50, 100, 200 nM; 300 s association, 1800-2500 s dissociation; 30 C; PBS, 1% BSA, 0.05% Tween; 1:1 binding model
[2] = target: V3, soluble IL-17RA (extracellular domain of the IL-17A receptor with point mutations that increase affinity for IL-17A); assay: as above
[3] = target: MMP-9 catalytic domain (Homo sapiens) (UniProt P14780); settings: cited from earlier work
Chain of MMP-9 catalytic domain (Homo sapiens) (P14780 107-443): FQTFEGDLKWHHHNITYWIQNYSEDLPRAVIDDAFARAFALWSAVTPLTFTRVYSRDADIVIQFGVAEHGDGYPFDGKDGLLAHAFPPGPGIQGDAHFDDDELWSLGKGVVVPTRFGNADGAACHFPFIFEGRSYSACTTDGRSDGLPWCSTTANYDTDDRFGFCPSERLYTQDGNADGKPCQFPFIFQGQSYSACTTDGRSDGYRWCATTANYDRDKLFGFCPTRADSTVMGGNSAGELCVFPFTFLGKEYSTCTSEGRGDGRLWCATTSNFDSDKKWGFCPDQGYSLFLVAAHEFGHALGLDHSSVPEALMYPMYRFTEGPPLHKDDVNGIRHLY

Chain of IL-17A (interleukin-17A) (Q16552 24-155): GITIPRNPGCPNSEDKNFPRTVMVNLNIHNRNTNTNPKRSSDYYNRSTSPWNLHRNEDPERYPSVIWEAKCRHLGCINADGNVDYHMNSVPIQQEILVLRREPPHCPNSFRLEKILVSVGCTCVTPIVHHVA
Chain of N-TIMP2 N-terminal domain (P16035 27-153): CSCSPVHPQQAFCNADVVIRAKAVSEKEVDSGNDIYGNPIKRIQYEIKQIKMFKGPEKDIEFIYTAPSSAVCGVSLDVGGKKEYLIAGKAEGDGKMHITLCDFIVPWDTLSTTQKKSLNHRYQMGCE

Kd [1] | Kd [2] | Substance | Ki [3]
0.048 nM | 0.122 nM | IL-17A (interleukin-17A) (from UniProt Q16552 24-155) (ligand) | 
 |  | N-TIMP2 N-terminal domain (from UniProt P16035) | 0.1 nM
